Measured values as given in the nanobody polyreactivity screen of Harvey et al. (2022).

Experiment: yeast display, Sf9 membrane polyspecificity reagent, FACS + sequencing; frameworks hold sequencing errors
Method in brief: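 Synthetic nanobody libraries on Saccharomyces cerevisiae BJ5465 were galactose-induced for 36–48 hours, stained 1 hour at 4 °C with 10% biotinylated, detergent-solubilized Sf9 membrane reagent and enriched on streptavidin microbeads. FACS then separated cells into low and high (top ~1%) gates by anti-HA (expression) and streptavidin (reagent binding) fluorescence. Genes were colony-PCR amplified, MiSeq 2 × 250 sequenced and CDR-length filtered. A clone's polyreactivity label is that of its gate of origin.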

Sequence	polyreactivity (PSR sort gate)
QVQLVESGGGLVQAGGSLRLSGAASGFIFIHYAMGWYRQAPGKERELVAAIRASGTSTYYADSVKGRFTISRDNAKNTVYLQMNSLKPEDTAVYYCAAQGYLRLRTHFNYWGQGTQVTLSS	low polyreactivity
QVQLVESGGGLVQAGGSLRLSCAASGFTFYGNAMGWYRQAPGKERELVAAISSRVGRTYYADSVKGRFTISRDNAKNTVYLQMNSLKPEDTAVYYCAKAPYGVRRGLYDYWGQGTQVTVSS	high polyreactivity
QVQHVESGGGLVQAGGSLRLSCAASGRTFRRYAMGWYRQAPGKERELVAVITTGSTYYADSVKGRFTISRDNAKNTVYLQMNSLKPEDTALYYCAADFYRATARYEMDYWGQGTQVTVSS	high polyreactivity
QVQLVESGGVLVQAGGSLLLSCAASGFTFGCYGMGWYRQARGKERELGAAITKSGGRTYYADSVKGRFTISRDNAKNTVYLQMNSLLREDTAVYYCAASSQGDGGYWGQGSQVTVSS	high polyreactivity
QVQLVESGGGLVQAGGSLRLSCAASGRIFYRYAMGWYRQAPGKERELVAAITGSGGSTYYADSVKGRFTISRDNAKNTVYLQMNSLKPEDTAVYYCNAVYARYGSQGYEYWGHGTQVTVSS	high polyreactivity
QVQLVESGGGLVQAGGSLRLSCAASGSTFVPYTMGWYRQAPGKERELVAAISGSGGTDYADSVKGRFTISRDNAKNTVYLQMNSLKPEDTAVYYCAADPQYWRFYSYGGGDDYWGQGTQVTVSS	low polyreactivity
QVQLVESGGGLVQAGGSLLLSCAASGRIFAYYAMGWYRQAPGKERELVAGISQRGSRTYYADSVKGRFTISRDNAKNTVYLQMNSLKPEDTAVYYCAARDRRSVTMDYWGQGTQVTVSS	high polyreactivity
QVQLVESGGGLVQAGGSLRLSCAASGRIFPKYAMGWYRQAPGKERELVAGITKRVGSTYYADSVKGRFTISRDNAKNTVYLQMNSLKPEDTAVYYCAKRWVSRTHGYWGQGTQVTVSS	low polyreactivity
QVQLVESGGGLDQAGGSLRLSCAASGRTFYYYAMGWYRQAPGIERELVAAISWSGGNTYYADSVKGRFTISRDNAKNTVYLQMNSLKPEDTAVYYCNRAYRTLTARTGRYDYWGQGTQVTVSS	high polyreactivity
QVQLVESGGGLVQAGGSLRLSCAASGSTFVRYAMGWYRQAPGKERELVAAISKSGGSTYYADSVKGRFTISRDNAKNTVYLQMNSLKPEDTAVYFCNADVYKNSKFRIMGYWGQGTQVTVSS	low polyreactivity
QVQLVESGGGLVQAGGSLRLSCAASGFIFTEYAMGWYRQAPGKEREFVAAISWSGGSTYYADSVKGRFTISRDNAKNTVYLQMNSLKPEDTAVYYCAKRSRGVKYDYWGQGTQVTVSS	high polyreactivity
QVQLVESGGGLVQAGGSLRLSCAASGRTFATNAMGWYSQAPGKERELVAGINGSGSTNYADSVKGRFTISRDNAKNTVYLQMNSLKPEDTAVYYCAAYVGLYYRLHYYYWGQGTQVTVSS	low polyreactivity
QVQLVESGGGLVQAGGSLRLSCAASGSTFAGNAMGWYRQAPGKERELVAAISGSGGITYYADSVKGRFTISRDNAKNTVYLQMNSLKPEDTAVYYCNAYYWFSRYGYWGQGTQVTVSS	high polyreactivity
QVQLVESGGGLVQAGGSQRLSCAASGRIFPGNAMGWYRQAPGKERELVAAIRWSGGSTYYADSVKGRFTISRDNAKNTVYLQMNSLKPEDTAVFYCAKDRGSVFKRKYYYWGQGTQVTVSS	low polyreactivity
QVQLLESGGGLVQAGGSLRLSCAASGRIYLGYALGWYRQAPGKERELVAAITSSGGYTYYADSVKGRFTISLDNAKNTVYLQMNSLKPEDTAVYYCNVYRFGWWYTNDYWGQGTQVTVSS	high polyreactivity
QVQLVESGGGLVQAGGSLRLSCAAYGRTFNPYAMGWYRQAPGKERELVARITWSGGRTYYADSVKGRFTISRDNAKNTVYLQMNSLKPEDTAVYYCAARYSKYLYGRFESWGQGTQVTVSS	high polyreactivity
QVQPVESVGGLVQAGGSLRLSGAASGSIFAVYAMRWYRQPPGNERELVARITRGGGSTYYADSVKGRVTISRDNAKNTVYLQMNSLKPEDTAVYYCAAARRSQYRTWMNYWGQGTQVTVSS	high polyreactivity
QVQLVESGGGLVQAGGSLRLSCAASGFTFGTYVMGWYRQAPGKERELVARITYGGGRTYYADSVKGRFTISRDNAKNTVYLQMNSLKPEDTAVYYCNARVTYSRYFKGYNYWGQGTQVTVSS	high polyreactivity
QVQLVESGGGLVQAGGSLRLSCAASGSIFRVYTMGWYIQAPGKERELVAAISRSGGRTYYADSVKGRFTISRDNAKNTVYLQMNSLKPEDTAVYYCAARSSLYRAGYRYNSWGQGTQVTVSS	high polyreactivity
QVQLVESGGGLVQAGGSLRLSCAASGSIFIYNAMGWYRQAPGKERELVAAISSSGGSTYYADSVKGRFTISRDNAKNTVYLQMNSLKPEDTAVYYCAARTYYVRVLGGRPGMDYWGQGTQVTVSS	low polyreactivity
QVQLVESGGGLVQAGGSLSLSCAASGSTFFIYTMGWYRQAPGNEREFVAAISWTGGRTYYADSEKGRFTISRDNAKNTVFLQMNSLTPEDTAVYYCAARYKYSSYDYWGQGTQVTVSS	high polyreactivity
QVQLVESGGGLVQAGGSLRLSCAASGFIFASNAMGWYRQAPGKERELVAAINSSGGSTYYADSVKGRFTISRDNAKNTVYLQMNSLKPEDTAVYYCAADVIGDLRWYRDEYWGHGTQVTVSS	low polyreactivity

Sequence	polyreactivity (PSR sort gate)
QVQLVESGGGLVQAGGSLRLSCAASGSIFRQYAMGWYRQAPGKDRELVAAIRSGGSTYYADSVQGRFTISRDNAKNTVYLQMNSLKPEDTAVYYCARGYSWSVGYPRVQDMDYWGQGTQVTVSS	high polyreactivity
QVQLVESGGGLVQAGGSLRLSCAASGRTFVYNAMGWYRQAPGKERELVAAITRSGGRTYYADSVKGRFTISRDNAKNTVYLQMNSLKPEDTAVYYCSARISRWYAYGTDIKEGDYWGQGTQVTVSS	low polyreactivity
QVQLVESGGGLVQAGGSRRLSCAASGISFGSYVMGWYRQAPGKERELVAAISWSGGSTNYADSVKGRFTISRDNSKNTVYLQMNILKPEDTAVFYCAAEYDVYGYYYWGQGTQVTVSS	high polyreactivity
QDQLVESGGGLVQAGGSLRLSCAASGFTFYGYAMGWYRQAQGKERELVAAISSSGGRTYYADSVKGRFTISRDNAKNTVYLQMNSLKPEDTAVYYCAARARYIRGGGSRAYIGYYWGQGTQVTVSS	high polyreactivity
QVQLQESGGLVQAGGSLRLSCAASGSISGRNVMGWYRQAPGKEREFVASITDGSSTNYADSVKGRFTISRDNAKNTVYLQMNSLKPKDTAVYYCAAYAQRAKSFGYWGRGTQVTVSS	low polyreactivity
QVQLVESGGGLVQAGGSLRLSCAASGFTFYQYAMGWYRQAPGKERELVAAITRRGGSTSYADSVKGRFTISRDNAKNTVYLQMNSLKPEDTAVYYCAREGSNSGRHGTLFDYWGQGTQVTVSS	high polyreactivity
QVQLVESGGGLVQAGGSLRLSCAASGSTFAFYAMGWYRQAPGKERELVAAINLGGGSTYYADSVKGRFTISRDNAKNTVYLQMNSLKPEDTAVYYCAADFWTFSWPVFDTYVYWGQGTQVTVSS	low polyreactivity
QVQLVESGGGLVQAGGSLRLSCAASGSIFQYNAMGWYRQVPGKERELVAAITSGGSTYADSVKGRFTISRDNAKNTVYLQMNSLKPEDTAVYYCNADRWFGNYLHLTFLNDYWGQGTQVTVSS	low polyreactivity
QVQHVESGGGLLQAGGSLRLICAAYGSTFGTYAMGWYRQAPGKERELVATISIGGITYYADSVKGRFTNSRDNAKYTVYLQMNSLKPEVTAVYYCAKDVTDATSRSDPSGDDYWGQGTQVTVSS	low polyreactivity
QVQLVESGGGLVQEGGSLRLICAASGLTFFPYAMGWYRQAPGKDRELVAAITTSDGTTYYADSVKGRFTISRDNAKNTVYLQMNSLKPEDTAVYYCAAVYSPRSVWWYDYWGQGTQVTVSS	low polyreactivity
QVQLVESGGGLVQAGGSLRLSCAASGFIFDRYAMGWSRQAPGKERELVAAITGSGGSTYYADSVKGRFTISRDNAKNTVYFQMNSLKPEDTAVYYSAAESYDYFALFYVSIPYYYWGQGTQVTVSS	high polyreactivity
QVQLVESGGGLVQAGGSLRLTCAASGRTFRPYAMGGYRQAPGKERQLVAAITYSGGSTYYADSVKGRFTISRDNAKNTVYLQMNSLKPEDTAVYYCAAEIAATYRPEYDYWGQGTQVTVSS	high polyreactivity
QVQLVDSGGGLVQAGGSLRLSSAASGITFQRYAMGWYRQAPGKERELVAGINGRGGSTYYADSVKGRFTISRDNAKNTVYLQMNSLKPEDTAVYYCNAVYAGRYFGFDYWGQGTQVTVSS	high polyreactivity
QVQLVESGGGLVQAGGSLRLSCAASGSIFGNAMGWYRQAPGKERELVAAITRGVSTYYADSVKGRFTISRDNAKNTVYLQMNSLKPEDTAVYYCNKTYVRGVHGVYLPITSYDYWGQGTQVTVSS	low polyreactivity
QVQLVESGGGLVQAGGSLRISCAASGITFDQNAMGWYRQAPGKEREFVGAITRGSSTNYADSVKGRFTISRDNAKNTVYLQMNSLKPEETAVYYCNADGYARFRTYYCRDTREYDYWGQGTQVTVSS	low polyreactivity
QVQLVESGGGLVQAGGSLRLSCAASGSIFRANAMGGYRQAPGKERELVATISSGGSTNYADSVKGRFTISRDNAKNTVYLQMNSLKPEDTAVYYCAVKWYPPGHDYWGQGTQVTVSS	low polyreactivity
QVQLVESRGGLVQAGCSLRLSSAASGLIFYFYTMGWYRQAPGKERELVDSIRSGDSTNYADSVKGRFTISRDNAKNTVYLQMNSLKPEDTAVYYCNARYRYPYYLSVAEKYDYWGQGTQVTVSS	high polyreactivity
QVQLVESGGGLVQAGGSLRLSCAASGRIFGYNAMGWYRQAPGKERELVAAINSDGSKNYADSVKGRFTISRDNAKNTVYLQMNSLKPEDTAVYYCNKELYPVGDYEYWGQGTQVTVSS	low polyreactivity
QVQLVESGGGLVQAGGSLRLSCAASGSIFIYYAMGWYRQAPGKQRELVAGINFNGGSTYYADSVKGRFTISRDNAMYTVYVQMNSLKPEDTAVYYCAADELWWTYWDFVTNWYQRDYWGQGTQVTVSS	low polyreactivity
QVQLVESGGGLVQAGGSLRLSCAASGFIFRYYAMGWYRQAPGKERELVAAISSRAGRTYADSVKGRFTISRDNAKYSVYLQMNSLKPEDTAVYYCAVRSKRKDVGYWGQGTQVTVSS	high polyreactivity
QVQLVESGGGLVQAGGSLRLSCAASGIIFSYYAMGWYRQAPGKERELVAAISRSGARTSYADSVKGRFTISRDNAKNTVYLQMNSLKPEDTAVYYCAARTQGTRYRGEYWGQGTQVTVSS	high polyreactivity
